Measurements from paper PMC6249601.

Biological target: EBOV GP.10xhis
Assay: SPR
Settings: for increase in kd values at pH 5.0: second pH 7.4

| Substance | koff (pH 5.0) [s⁻¹] | t 1/2 (min) (pH 5.0) | koff (pH 6.0) [s⁻¹] | t 1/2 (min) (pH 6.0) | koff (pH 7.4) [s⁻¹] | t 1/2 (min) (pH 7.4) | increase in kd values at pH 5.0 |
| --- | --- | --- | --- | --- | --- | --- | --- |
| REGN3470 | 0.000491 | 23.5 | 0.000367 | 31.4 | 0.000432 | 26.7 | less than 2-fold |
| REGN3471 | 0.000332 | 34.8 | 0.000221 | 52.3 | 0.000195 | 59.1 | less than 2-fold |
| REGN3479 | 0.000202 | 57.3 | 0.000214 | 55.1 | 7.83e-05 | 148 | 3-fold |
